# From the supplement of paper PMC9112550, “Optimization of the antimicrobial peptide Bac7 by deep mutational scanning” (BMC Biology, 2022)
# Tested on: Escherichia coli TOP10
# Assay: shrunken log2 fold change of peptide-encoding DNA abundance (4.5 h post-induction vs induction); higher = less antimicrobial activity (less host growth inhibition)
# Conditions: time post-induction: 4.5 h; library: site-saturation at positions 5, 18, 19, 20
# 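Note: peptides expressed intracellularly from a pBAD plasmid library in pooled LB shake-flask culture, induced with 0.3% L-arabinose, DNA abundance read by NGS, three biological replicates, DESeq2 with apeglm shrinkage.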
row,Sequence,shrunken log2 fold change
1,RRIRDRPPRLPRPRPRPHGNPRP,-0.149
2,RRIRSRPPRLPRPRPRPSVIPRP,-0.602
3,RRIRTRPPRLPRPRPRPQQCPRP,-0.0115
4,RRIRLRPPRLPRPRPRPHDMPRP,-0.117
5,RRIRKRPPRLPRPRPRPGRRPRP,0.438
6,RRIRSRPPRLPRPRPRPVMHPRP,0.00492
7,RRIRHRPPRLPRPRPRPASSPRP,0.0164
8,RRIRVRPPRLPRPRPRPESEPRP,0.0921
9,RRIRPRPPRLPRPRPRPLFIPRP,-0.459
10,RRIRKRPPRLPRPRPRPSDEPRP,0.258
11,RRIRFRPPRLPRPRPRPQFGPRP,-0.0484
12,RRIRNRPPRLPRPRPRPMWSPRP,-0.095
13,RRIRSRPPRLPRPRPRPIMCPRP,-0.572
14,RRIRVRPPRLPRPRPRPVYSPRP,-0.0974
15,RRIRRRPPRLPRPRPRPEIHPRP,-0.265
16,RRIRVRPPRLPRPRPRPVKDPRP,0.0828
17,RRIRMRPPRLPRPRPRPECGPRP,2.7
18,RRIRIRPPRLPRPRPRPYGKPRP,-0.108
19,RRIRIRPPRLPRPRPRPKKDPRP,-0.602
20,RRIRIRPPRLPRPRPRPKYPPRP,-0.121
21,RRIRDRPPRLPRPRPRPCTQPRP,0.0408
22,RRIRARPPRLPRPRPRPTDVPRP,0.141

row,Sequence,shrunken log2 fold change
1,RRIRVRPPRLPRPRPRPGMAPRP,0.183
2,RRIRSRPPRLPRPRPRPPVNPRP,-0.489
3,RRIRKRPPRLPRPRPRPIYEPRP,-0.0432
4,RRIRCRPPRLPRPRPRPWFKPRP,-0.582
5,RRIRNRPPRLPRPRPRPEWNPRP,0.0541
6,RRIRCRPPRLPRPRPRPRTEPRP,0.0022
7,RRIRARPPRLPRPRPRPSFSPRP,-0.134
8,RRIRDRPPRLPRPRPRPWYRPRP,-0.0745
9,RRIRDRPPRLPRPRPRPSGTPRP,-0.199
10,RRIRSRPPRLPRPRPRPTVGPRP,0.187
11,RRIRFRPPRLPRPRPRPERSPRP,0.0713
12,RRIRMRPPRLPRPRPRPNPRPRP,0.718
13,RRIRARPPRLPRPRPRPGPKPRP,0.421
14,RRIRTRPPRLPRPRPRPGRPPRP,0.217
15,RRIRNRPPRLPRPRPRPLLFPRP,-0.188
16,RRIRDRPPRLPRPRPRPRIIPRP,-0.00686
17,RRIRGRPPRLPRPRPRPQEIPRP,0.427
18,RRIRHRPPRLPRPRPRPFSRPRP,-0.0618
19,RRIRRRPPRLPRPRPRPPPSPRP,1.21
20,RRIRTRPPRLPRPRPRPVNTPRP,-0.103
21,RRIRSRPPRLPRPRPRPLVRPRP,0.0873
22,RRIRVRPPRLPRPRPRPGTGPRP,0.148

row,Sequence,shrunken log2 fold change
1,RRIRVRPPRLPRPRPRPRDLPRP,0.0448
2,RRIRPRPPRLPRPRPRPGPMPRP,0.293
3,RRIRKRPPRLPRPRPRPPVNPRP,0.04
4,RRIRWRPPRLPRPRPRPPSGPRP,0.127
5,RRIRTRPPRLPRPRPRPDTDPRP,-0.138
6,RRIRRRPPRLPRPRPRPLMQPRP,0.396
7,RRIRHRPPRLPRPRPRPEAVPRP,-0.00144
8,RRIRVRPPRLPRPRPRPNECPRP,-0.0835
9,RRIRYRPPRLPRPRPRPMCSPRP,-0.116
10,RRIRKRPPRLPRPRPRPDERPRP,-0.00101
11,RRIRIRPPRLPRPRPRPFAQPRP,-0.108
12,RRIRDRPPRLPRPRPRPCIIPRP,-0.0943
13,RRIRRRPPRLPRPRPRPIQHPRP,0.0238
14,RRIRFRPPRLPRPRPRPWDDPRP,-0.636
15,RRIRQRPPRLPRPRPRPEIFPRP,0.127
16,RRIRVRPPRLPRPRPRPATNPRP,-0.301
17,RRIRQRPPRLPRPRPRPTMVPRP,-0.148
18,RRIRKRPPRLPRPRPRPRMVPRP,0.168
19,RRIRQRPPRLPRPRPRPCLCPRP,-0.294
20,RRIRTRPPRLPRPRPRPEPMPRP,0.00621
21,RRIRWRPPRLPRPRPRPGSCPRP,0.389
22,RRIRNRPPRLPRPRPRPVALPRP,-0.0331

row,Sequence,shrunken log2 fold change
1,RRIRSRPPRLPRPRPRPYAQPRP,-0.535
2,RRIRSRPPRLPRPRPRPGSQPRP,-0.492
3,RRIRKRPPRLPRPRPRPCHVPRP,-0.203
4,RRIRCRPPRLPRPRPRPENVPRP,-0.0137
5,RRIRTRPPRLPRPRPRPAVLPRP,0.153
6,RRIRSRPPRLPRPRPRPVQMPRP,0.0426
7,RRIRQRPPRLPRPRPRPHNKPRP,-0.599
8,RRIRPRPPRLPRPRPRPCDKPRP,0.0695
9,RRIRVRPPRLPRPRPRPIFSPRP,-0.628
10,RRIRRRPPRLPRPRPRPTCWPRP,0.225
11,RRIRSRPPRLPRPRPRPEQPPRP,0.591
12,RRIRGRPPRLPRPRPRPICDPRP,0.717
13,RRIRNRPPRLPRPRPRPDMWPRP,-0.119
14,RRIRNRPPRLPRPRPRPKWDPRP,0.0992
15,RRIRWRPPRLPRPRPRPIFWPRP,-0.00424
16,RRIRERPPRLPRPRPRPKHSPRP,0.111
17,RRIRFRPPRLPRPRPRPTWRPRP,0.587
18,RRIRDRPPRLPRPRPRPDNNPRP,-0.0748
19,RRIRVRPPRLPRPRPRPTLHPRP,0.195
20,RRIRVRPPRLPRPRPRPENSPRP,-0.522
21,RRIRNRPPRLPRPRPRPEGGPRP,-0.00659
22,RRIRYRPPRLPRPRPRPPNEPRP,-0.106

row,Sequence,shrunken log2 fold change
1,RRIRVRPPRLPRPRPRPLTPPRP,0.758
2,RRIRWRPPRLPRPRPRPGNWPRP,0.0533
3,RRIRDRPPRLPRPRPRPCDNPRP,-0.283
4,RRIRSRPPRLPRPRPRPRRQPRP,0.681
5,RRIRVRPPRLPRPRPRPGLNPRP,-0.00582
6,RRIRPRPPRLPRPRPRPEPWPRP,0.232
7,RRIRGRPPRLPRPRPRPVHKPRP,0.518
8,RRIRGRPPRLPRPRPRPRCMPRP,0.364
9,RRIRFRPPRLPRPRPRPYCKPRP,-0.243
10,RRIRERPPRLPRPRPRPGPVPRP,0.137
11,RRIRMRPPRLPRPRPRPKERPRP,0.0219
12,RRIRNRPPRLPRPRPRPGCRPRP,0.123
13,RRIRQRPPRLPRPRPRPLEIPRP,-0.106
14,RRIRPRPPRLPRPRPRPNWHPRP,-0.0472
15,RRIRPRPPRLPRPRPRPPTRPRP,0.683
16,RRIRLRPPRLPRPRPRPTRLPRP,0.432
17,RRIRNRPPRLPRPRPRPAHLPRP,0.256
18,RRIRNRPPRLPRPRPRPTMCPRP,-0.0233
19,RRIRERPPRLPRPRPRPPDQPRP,0.155
20,RRIRVRPPRLPRPRPRPVAPPRP,0.242
21,RRIRIRPPRLPRPRPRPVPNPRP,-0.00284
